Assay results as given in patent publication US20230331848A1 (BIOSION, published 2023).
Numbering of substitutions follows the chain as printed. Values belong to the binder of their own block, whether it stands above or below them.

Key:
[1] = target: T1, human PD-1 expressed on GS-J2/PD-1 cells (Genscript) (human, UniProt Q15116 25-288); experiment: cell-based or functional assay
[2] = target: T1, human PD-1 expressed on GS-J2/PD-1 …; experiment: flow cytometry on GS-J2/PD-1 cells
Protocol: In specific, the 293F-mouse PD-1 cells and GS-J2/PD-1 cells were respectively harvested from cell culture flasks, washed twice and re-suspended in PBS containing 2% v/v Fetal Bovine Serum (FACS buffer). Then, 2×10⁵ cells per well were incubated in 96 well-plates with 100 μl of the anti-PD1 antibodies or controls at various concentrations for 40 minutes on ice. […] Following an incubation of 40 minutes at 4° C. in dark, cells were washed three times and re-suspended in FACS buffer. Fluorescence was measured using a Becton Dickinson FACS Canto II-HTS equipment and plotted against antibody concentrations. Data was analyzed using GraphPad Prism software and EC₅₀ values were reported.
For the cell-based binding FACS, R-Phycoerythrin AffiniPure Goat Anti-human IgG Fcγ fragment specific (Cat#:109-115-098, Jackson ImmunoResearch) was used for the humanized antibodies, with 1:1000 dilution in FACS buffer, 100 μl/well.

[3] = target: T2, recombinant human PD-1-his protein (Cat#:10377-H08H, Sino biological Inc.) (human, UniProt Q15116 25-167); experiment: SPR (Biacore), protocol of Example 2
T2 construct: Bought protein used as analyte in the Biacore tests; not shown: his tag

[4] = target: T3, recombinant mouse PD-1-his protein (Cat#:50124-M08H, Sino Biological Inc) (mouse, UniProt Q02242 25-167); experiment: SPR (Biacore), protocol of Example 2
T3 construct: Bought protein used in Biacore and indirect ELISA; not shown: his tag
T3 sequence (looked up): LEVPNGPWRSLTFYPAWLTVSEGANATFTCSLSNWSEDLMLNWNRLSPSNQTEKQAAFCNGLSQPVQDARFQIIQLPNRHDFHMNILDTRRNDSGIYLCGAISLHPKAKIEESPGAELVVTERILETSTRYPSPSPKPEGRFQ

[5] = target: T4, cynomolgus PD-1-his protein (Cat#:PD1-05223, Acro biosystems Inc.) (cynomolgus, UniProt B0LAJ3 25-170); experiment: indirect ELISA on coated cynomolgus PD-1-his
T4 construct: Bought protein used in Biacore and indirect ELISA; also called monkey PD-1; Cyno PD-1

[6] = target: T5, human PD-1-his protein prepared in-house (human, UniProt Q15116 25-167, biotin-labeled (sites not given)); experiment: capture ELISA, antibody captured, biotin human PD-1-his detected
T5 construct: also called biotin labeled human PD-1-his
Protocol: Briefly, 96-well micro plates were coated with 100 μl 2 μg/ml AffiniPure Goat Anti-Mouse IgG F(ab′)₂ fragment specific (Cat#:115-005-072, Jackson lmmunoResearch) or Goat-anti-human IgG (Cat#:109-005-097, Jackson ImmunoResearch, for the positive control and negative control) in PBS overnight at 4° C. Plates were washed once with wash buffer (PBST, PBS+0.05% Tween-20) and then blocked with 200 μl/well blocking buffer (5% w/v non-fatty milk in PBST) for 2 hours at 37° C. […] After a final wash, plates were incubated with 100 μl/well TMB (Cat#:TMB-S-002, Innoreagents) at room temperature.
For the capture ELISA, 96-well plates were coated with 100 μl 2 μg/ml AffiniPure Goat Anti-Human IgG, Fcγ fragment specific (Cat#:109-005-098, Jackson Immunoresearch) instead of AffiniPure goat-anti-mouse IgG F(ab′)₂ fragment specific.

[7] = target: T6, human PD-1-his protein (Cat#:PD1-H5221, Acro biosystems Inc.) (human, UniProt Q15116 25-167); experiment: BLI (Octet RED96), antibody captured on AHC sensor, human PD-1-his in solution, 1:1 fit
T6 construct: not shown: his tag
Protocol: (§1) Briefly, AHC biosensors (anti-human IgG Fe capture, from ForteBio) were presoaked with 10 mM glycine (pH 1.5) for 3 seconds, and then dipped in a well with running buffer (0.5% w/v BSA in PBST) for 3 seconds, the soaking and dipping steps were repeated for three times. […] A new baseline was run for 100 seconds in another well with running buffer. Then the sensors were dipped in a well with serially diluted human PD-1-his protein (Cat#:PD1-H5221, Acro biosystems Inc., starting at 100 nM with a two-fold serial dilution) in running buffer for 120 seconds, and then immersed in a baseline well for […]. Finally, sensors were presoaked with 10 mM glycine (pH 1.5) for 30 seconds, and then were dipped in a well with running buffer for 30 seconds. The association and dissociation curves were fit to a 1:1 Langmuir binding model using ForteBio Data Analysis 8.1 evaluation software.

[8] = target: T7, in house made human PD-1-Fc protein (human, biotin-labeled (sites not given)); experiment: competitive ELISA: biotin human PD-1-Fc + antibody on coated human PD-L1-Fc (competitor)
T7 construct: also called biotin-labeled human PD-1-Fc
Protocol: Briefly, 100 μl human PD-L1-Fc protein (prepared in-house with SEQ ID NO: 28) at 2 μg/mL in carbonate/bicarbonate buffer (pH 9.6) was coated on 96-well micro plates overnight at 4° C., Plates were washed with wash buffer (PBS+0.05% w/v Tween-20, PBST), and blocked with 5% w/v non-fatty milk in PBST for 2 hours at 37° C. […] After incubation at 37° C. for 40 minutes, plates were washed using wash buffer. […] Plates were washed again using wash buffer. Finally, TMB was added and the reaction was stopped using 1M H₂SO₄. The absorbance was read on a microplate reader using dual wavelength mode with 450 nm for TMB and 630 nm as the reference wavelength, then the OD (450-630) values were plotted against antibody concentrations. Data was analyzed using Graphpad Prism software and IC₅₀ values were reported.

[9] = target: T5, human PD-1-his protein prepared in-house; experiment: competitive ELISA: biotin human PD-1-his + antibody on coated Pembrolizumab (competitor)
Protocol: ELISA plates were washed once with wash buffer (PBST, PBS+0.05% Tween-20) and then blocked with 200 μl/well blocking buffer (5% w/v non-fatty milk in PBST) for 2 hours at 37° C. […] After incubation at 37° C. for 40 minutes, plates were washed using wash buffer, added and incubated with 100 μl/well Peroxidase Streptavidin for 40 minutes at 37° C. Plates were washed again using wash buffer. Finally, TMB was added and the reaction was stopped using 1M H₂SO₄. The absorbance was read on a microplate reader using dual wavelength mode with 450 nm for TMB and 630 nm as the reference wavelength, and the OD (450-630) values were plotted against antibody concentrations. Data was analyzed using Graphpad Prism software and IC₅₀ values were reported.

[10] = target: T6, human PD-1-his protein (Cat#:PD1-H5221, …); experiment: BLI (Octet RED96), antibody captured on AHC sensor, human PD-1-his in solution, 1:1 fit (second run)
Protocol: as §1

[11] = target: T7, in house made human PD-1-Fc protein; experiment: blocking FACS: biotin human PD-1-Fc + antibody on GS-C2/PD-L1 cells (competitor: cell-surface human PD-L1)
Protocol: GS-C2/PDL1 cells were harvested from cell culture flasks at the log phase, washed twice and re-suspended in PBS containing 2% v/v Fetal Bovine Serum (FACS buffer). GS-C2/PD-L1 cells, 0.6×10⁵ cells per welt, were incubated in 96 well-plates with 100 the antibody/PD1-Fc mixture for 40 minutes at 4° C. Cells were washed twice with FACS buffer, added with 100 R-Phycoerythrin Streptavidin (1:500 dilution in FACS buffer, Cat#:016-110-084, Jackson Immunoresearch), and incubated for 40 minutes at 4° C. in dark. Cells were washed twice and re-suspended in FACS buffer. Fluorescence was measured using a Becton Dickinson FACS Canto II-HTS equipment. Data was analyzed using Graphpad Prism software and IC₅₀ values were reported.

[12] = target: T6, human PD-1-his protein (Cat#:PD1-H5221, …); experiment: BLI (Octet RED96), supernatant antibody captured on AHC sensor, human PD-1-his in solution, 1:1 fit
Protocol: as §1

B1: Chimeric E1A9C8A7 antibody (antibody, human IgG4 S228P, kappa, V domains shown)
VH: QVQLQQSGAEVVRPGVSVRISCKGSGYTFSDYVMHWMKQSHGESLEWIGVISTYHIPAVYNQKFKGKATMTVDKSSSTVYLELARLTSEDSAIYYCAREVYGDSYYFDVWGAGTTVTVSS
VL: DVLMTQIPLSLPVSLGDQVSISCRSSQSIVHSNGNTYLEWYLQKPGQSPKLLIYKVSNRFSGVPDRFSGSGSGTDFTLKISRVEAEDLGVYYCFQGSHVPYTFGGGTKLEIKR
notes: also called chimeric antibody E1A9C8A7
Cell-based functional assay (EC50, nM) [1]: 7.45 nM | EC50 [2]: 0.67 nM | Kd [3]: 1.11 nM | koff [3]: 0.000645 s⁻¹ | kon [3]: 580000 M⁻¹ s⁻¹ | Kd [4]: 162 nM | koff [4]: 0.027 s⁻¹ | kon [4]: 167000 M⁻¹ s⁻¹ | EC50 [5]: 0.85 nM | EC50 [6]: 0.21 nM | Kd [7]: 1.32 nM | koff [7]: 0.000316 s⁻¹ | kon [7]: 239000 M⁻¹ s⁻¹ | IC50 [8]: 0.38 nM | IC50 [9]: 0.61 nM | Kd [10]: 2.18 nM | koff [10]: 0.000597 s⁻¹ | kon [10]: 274000 M⁻¹ s⁻¹ | IC50 [11]: 0.57 nM

B2: humanized antibody huE1A9C8A7-V5 (antibody, human IgG4 S228P, kappa)
heavy: not shown
light: DIVMTQTPLSLPVTPGEPASISCRSSQSIVHSNGNTYLEWYLQKPGQSPQLLIYKVSNRFSGVPDRFSGSGSGTDFTLKISRVEAEDVGVYYCFQGSHVPYTFGGGTKVEIKRTVAAPSVFIFPPSDEQLKSGTASVVCLLNNFYPREAKVQWKVDNALQSGNSQESVTEQDSKDSTYSLSSTLTLSKADYEKHKVYACEVTHQGLSSPVTKSFNRGEC
notes: Human IgG4/kappa
Cell-based functional assay (EC50, nM) [1]: 9.3 nM | EC50 [2]: 0.66 nM | EC50 [5]: 0.9 nM | EC50 [6]: 0.21 nM | IC50 [8]: 0.35 nM | IC50 [9]: 0.54 nM | Kd [12]: 1.01 nM | koff [12]: 0.000213 s⁻¹ | kon [12]: 211000 M⁻¹ s⁻¹ | IC50 [11]: 0.54 nM

B5: humanized antibody huE1A9C8A7-V9 (antibody, human IgG4 S228P, kappa, V domains shown)
VH: QVQLVQSGAEVVKPGASVKISCKASGYTFTDYVMHWVRQAPGQSLEWIGVISTYHIPAVYNQKFKGRATMTVDTSTSTVYLELSSLRSEDTAVYYCAREVYGDSYYFDVWGQGTTVTVSS
VL: DIVMTQTPLSLPVTPGEPASISCRSSQSIVHSNGNTYLEWYLQKPGQSPQLLIYKVSNRFSGVPDRFSGSGSGTDFTLKISRVEAEDVGVYYCFQGSHVPYTFGGGTKVEIKR
notes: Human IgG4/kappa
Kd [12]: 1.63 nM | koff [12]: 0.000413 s⁻¹ | kon [12]: 253000 M⁻¹ s⁻¹

B6: humanized antibody huE1A9C8A7-V10 (antibody, human IgG4 S228P, kappa, V domains shown)
VH: B5 VH with R67K, A68V
VL: B5 VL
notes: Human IgG4/kappa
Kd [12]: 1.59 nM | koff [12]: 0.000385 s⁻¹ | kon [12]: 242000 M⁻¹ s⁻¹

B10: humanized antibody huE1A9C8A7-V6 (antibody, human IgG4 S228P, kappa)
heavy: not shown
light: B2 light
notes: Human IgG4/kappa
Kd [12]: 1.84 nM | koff [12]: 0.000428 s⁻¹ | kon [12]: 233000 M⁻¹ s⁻¹

The remaining binders from weak to strong by Kd [12], led by results:

Kd [12]: 1.54 nM | koff [12]: 0.000317 s⁻¹ | kon [12]: 206000 M⁻¹ s⁻¹
B7: humanized antibody huE1A9C8A7-V1 (antibody, human IgG4 S228P, kappa, V domains shown)
VH: B5 VH with T30S, V37M, R67K, T74K
VL: B5 VL
notes: Human IgG4/kappa

Kd [12]: 1.53 nM | koff [12]: 0.000296 s⁻¹ | kon [12]: 194000 M⁻¹ s⁻¹
B3: humanized antibody huE1A9C8A7-V11 (antibody, human IgG4 S228P, kappa, V domains shown)
VH: B5 VH with R67K, V72R
VL: B5 VL
notes: Human IgG4/kappa

Kd [12]: 1.5 nM | koff [12]: 0.000356 s⁻¹ | kon [12]: 237000 M⁻¹ s⁻¹
B8: humanized antibody huE1A9C8A7-V7 (antibody, human IgG4 S228P, kappa, V domains shown)
VH: B5 VH with S44G, R67K
VL: B5 VL
notes: Human IgG4/kappa

Kd [12]: 1.49 nM | koff [12]: 0.000294 s⁻¹ | kon [12]: 197000 M⁻¹ s⁻¹
B4: humanized antibody huE1A9C8A7-V2 (antibody, human IgG4 S228P, kappa, V domains shown)
VH: B5 VH with V37M, R67K, T74K
VL: B5 VL
notes: Human IgG4/kappa

Kd [12]: 1.49 nM | koff [12]: 0.00027 s⁻¹ | kon [12]: 182000 M⁻¹ s⁻¹
B9: humanized antibody huE1A9C8A7-V4 (antibody, human IgG4 S228P, kappa, V domains shown)
VH: B5 VH with T30S, V37M, R67K
VL: B5 VL
notes: Human IgG4/kappa
